A word on the Kd: it is the concentration at which binding is half-saturated. One may read the kon as the second-order rate constant of association. As a reminder, the koff is the rate constant with which the complex falls apart.

Where two headings read alike, the source gives them in different places. Where no end group is shown, it is not given here. The star is where a group is joined. TAMRA = 5-carboxytetramethylrhodamine, CN(C)c1ccc2c(-c3ccc(C(=O)*)cc3C(=O)[O-])c3ccc(=[N+](C)C)cc-3oc2c1

This is an account of results in paper PMC6016464, “Folding and binding pathways of BH3-only proteins are encoded within their intrinsically disordered sequence, not templated by partner proteins” (The Journal of Biological Chemistry, 2018).

Test [1] addresses T1, A1 protein (mouse, residues 1-152, P104K C113S, used as wild type) (mouse).
T1 sequence (Q07440 1-152 with P104K C113S, looked up): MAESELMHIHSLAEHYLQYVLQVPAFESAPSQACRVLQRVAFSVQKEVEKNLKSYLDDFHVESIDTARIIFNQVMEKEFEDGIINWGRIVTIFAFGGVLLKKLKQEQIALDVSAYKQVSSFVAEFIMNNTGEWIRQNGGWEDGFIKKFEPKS
Put plainly: stopped-flow fluorescence kinetics + other: fluorescence dissociation kinetics with competitor; Kd calculated as the ratio koff/kon of the kinetic rate constants; 25 °C; 50 mM sodium phosphate, 0.05% (v/v) Tween 20, pH 7.0.

Test [2] deals with T2, MCL-1 (mouse, residues 152-308) (mouse).
T2 construct: remnant of thrombin cleavage at the N-terminus of MCL-1; MCL-1, mouse, residues 152-308, UniProt P97287; source: E. coli C41 pLysS, purified (Ni2+ agarose, thrombin cleavage, ion exchange, Superdex G75 gel filtration); not shown: His6, N-terminal, cleaved
T2 chain: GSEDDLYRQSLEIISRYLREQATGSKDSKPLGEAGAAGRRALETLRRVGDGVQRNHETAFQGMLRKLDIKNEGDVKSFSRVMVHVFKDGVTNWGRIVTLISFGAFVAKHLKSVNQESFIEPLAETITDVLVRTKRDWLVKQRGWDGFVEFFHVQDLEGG
The test is described as above. Conditions: both partners purified.

For test [3], the target named is T1, A1 protein (mouse, residues 1-152, P104K C113S, used as wild type) (mouse). The test can be described thus: stopped-flow fluorescence kinetics; association; TAMRA-labelled peptide with folded partner at least 10-fold higher (pseudo-first-order); kon from the gradient of kobs versus partner concentration; 25 °C; 50 mM sodium phosphate, 0.05% (v/v) Tween 20, pH 7.0.

The target in test [4] is T2, MCL-1 (mouse, residues 152-308). Put plainly: stopped-flow fluorescence kinetics; association; TAMRA-labelled peptide with folded partner at least 10-fold higher (pseudo-first-order); kon from the gradient of kobs versus partner concentration; 25 °C; 50 mM sodium phosphate, 0.05% (v/v) Tween 20, pH 7.0. Conditions: both partners purified. The method in brief: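 The association rate constant is the slope of observed rate versus partner concentration, from stopped-flow fluorescence of TAMRA-labelled peptide with mouse MCL-1 (residues 152–308). The partner was in at least 10-fold excess, in 50 mM sodium phosphate, 0.05% (v/v) Tween 20, pH 7.0, at 25 °C. Excitation was at 555 nm with emission above 570 nm, and each observed rate came from a single-exponential fit.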

Test [5] has as its target T1, A1 protein (mouse, residues 1-152, P104K C113S, used as wild type) (mouse). Put plainly: fluorescence dissociation kinetics with competitor; dissociation; preformed complex of TAMRA-labelled peptide and partner protein mixed with excess unlabeled PUMA peptide as competitor; stopped-flow or Cary Eclipse spectrophotometer; 25 °C; 50 mM sodium phosphate, 0.05% (v/v) Tween 20, pH ….

The target of test [6] is T2, MCL-1 (mouse, residues 152-308). Put plainly: fluorescence dissociation kinetics with competitor; dissociation; preformed complex of TAMRA-labelled peptide and partner protein mixed with excess unlabeled PUMA peptide as competitor; stopped-flow or Cary Eclipse spectrophotometer; 25 °C; 50 mM sodium phosphate, 0.05% (v/v) Tween 20, pH 7.0. Conditions: both partners purified. In short, it runs like this: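 In buffer of 50 mM sodium phosphate with 0.05% (v/v) Tween 20 at pH 7.0 and 25 °C, a preformed complex of mouse MCL-1 (residues 152–308) and TAMRA-labelled peptide was mixed with varying amounts of unlabelled competitor peptide. Fluorescence changes, recorded by stopped-flow for kobs > 0.03 s^−1 or by Cary Eclipse for kobs < 0.03 s^−1, were fit to single exponentials. The dissociation rate constant is the average of the concentration-independent kobs values reached with sufficient competitor excess.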

Test [7] has as its target T1, A1 protein (mouse, residues 1-152, P104K C113S, used as wild type) (mouse). The test can be described thus: stopped-flow fluorescence kinetics; association; TAMRA-labelled peptide with folded partner at least 10-fold higher (pseudo-first-order); kon from the gradient of kobs versus partner concentration; 25 °C; 50 mM sodium phosphate, 0.05% (v/v) Tween 20, pH 7.0. This is another data set of the same source.

Test [8] shares this target. Put plainly: fluorescence dissociation kinetics with competitor; dissociation; preformed complex of TAMRA-labelled peptide and partner protein mixed with excess unlabeled PUMA peptide as competitor; stopped-flow or Cary Eclipse spectrophotometer; 25 °C; 50 mM sodium phosphate, 0.05% (v/v) Tween 20, pH …. This is another data set of the same source.
For test [9] the target is unchanged. The test can be described thus: fluorescence polarisation; equilibrium binding by fluorescence anisotropy of the TAMRA-labelled peptide against partner protein concentration; anisotropy adjusted for the change in fluorescence intensity; 25 °C; 50 mM sodium phosphate, 0.05% (v/v) Tween 20, pH 7.0.
For test [10], the target named is T2, MCL-1 (mouse, residues 152-308). Described as above. Particulars: both partners purified.
For test [11] the target is unchanged. The test can be described thus: other fluorescence titration; equilibrium binding curve of TAMRA-labelled peptide, fluorescence (A.U.) against MCL-1 concentration; 50 mM sodium phosphate, 0.05% (v/v) Tween 20, pH 7.0. Particulars: both partners purified.
In test [12] the target is T3, MCL-1 (mouse, residues 152-308) (mouse, UniProt P97287 152-308).
T3 construct: MCL-1, mouse, residues 152-308, UniProt P97287; source: recombinantly produced, purified (protocol in the supplemental Experimental Procedures)
Put plainly: dissociation kinetics by competition (fluorescence); preformed complex of TAMRA peptide and partner protein mixed with various concentrations of unlabeled PUMA peptide as competitor; stopped-flow or spectrophotometer; 25 °C; 50 mM sodium phosphate, 0.05% (v/v) Tween 20, pH 7.0. Particulars: both partners purified.

B1: BID E81A peptide, TAMRA-labelled (peptide, UniProt P70444 76-110, looked up)
chain: {TAMRA}-SESQEAIIHNIARHLAQIGDEMDHNIQPTLVRQLA
notes: BID, mouse, residues 76-110, UniProt P70444; source: synthetic peptide (Biomatik)
For B1, the Kd in test [1] was 0.02 nM; in [2] it was 0.55 nM. Moreover, the kon came to 1.07e+07 M⁻¹ s⁻¹ in [3] and 6.5e+06 M⁻¹ s⁻¹ in [4]. The koff was found to be 0.000213 s⁻¹ in test [5] and 0.0036 s⁻¹ in test [6].

B2: BID E81G peptide, TAMRA-labelled (peptide, UniProt P70444 76-110, looked up)
chain: {TAMRA}-SESQEGIIHNIARHLAQIGDEMDHNIQPTLVRQLA
notes: as for B1
As to B2, the Kd was 0.047 nM in [1] and 1.6 nM in test [2]. In addition, the kon in test [3] amounted to 9.6e+06 M⁻¹ s⁻¹; in test [4], 4.8e+06 M⁻¹ s⁻¹. Besides, the koff in test [5] stood at 0.000454 s⁻¹; in test [6], 0.008 s⁻¹.

B3: BID I83A peptide, TAMRA-labelled (peptide, UniProt P70444 76-110, looked up)
chain: {TAMRA}-SESQEEIAHNIARHLAQIGDEMDHNIQPTLVRQLA
notes: as for B1
Turning to B3, the Kd in test [1] is 0.29 nM; in [2], 1.7 nM. Also, the kon in test [3] came to 7e+06 M⁻¹ s⁻¹; in [4], 8.6e+06 M⁻¹ s⁻¹. Also, the koff in test [5] worked out at 0.002 s⁻¹; in test [6], 0.014 s⁻¹.

B4: BID R88A peptide, TAMRA-labelled (peptide, UniProt P70444 76-110, looked up)
chain: {TAMRA}-SESQEEIIHNIAAHLAQIGDEMDHNIQPTLVRQLA
notes: as for B1
B4: the Kd in [1] was 0.16 nM; in test [2] it was 0.6 nM. Besides, the results for the kon in [7] and in [4] were 5.3e+06 M⁻¹ s⁻¹ and 1e+07 M⁻¹ s⁻¹, respectively. Also, the koff in test [8] is 0.00088 s⁻¹; in test [6], 0.0063 s⁻¹.

B5: BID R88G peptide, TAMRA-labelled (peptide, UniProt P70444 76-110, looked up)
chain: {TAMRA}-SESQEEIIHNIAGHLAQIGDEMDHNIQPTLVRQLA
notes: as for B1
For B5, the dissociation constant Kd in test [1] was 0.6 nM; in [2], 1.8 nM. In addition, the kon in test [7] worked out at 4.9e+06 M⁻¹ s⁻¹; in [4], 8.3e+06 M⁻¹ s⁻¹. Also, the koff stood at 0.00303 s⁻¹ in test [8] and 0.015 s⁻¹ in test [6].

B6: BID M97A peptide, TAMRA-labelled (peptide, UniProt P70444 76-110, looked up)
chain: {TAMRA}-SESQEEIIHNIARHLAQIGDEADHNIQPTLVRQLA
notes: as for B1
With B6, the Kd in test [1] is 0.19 nM; in test [2], 3.8 nM. In addition, the figures for the on-rate constant (kon) in test [7] and in [4] were 8.1e+06 M⁻¹ s⁻¹ and 7.8e+06 M⁻¹ s⁻¹, respectively. For the same molecule, the koff came to 0.0015 s⁻¹ in [8] and 0.03 s⁻¹ in [6].

B7: BID L90A peptide, TAMRA-labelled (peptide, UniProt P70444 76-110, looked up)
chain: {TAMRA}-SESQEEIIHNIARHAAQIGDEMDHNIQPTLVRQLA
notes: as for B1
As for B7, the Kd in test [1] is 210 nM; in test [2] it was 610 nM; in test [9], 360 nM; in test [10], 1200 nM. Further, the kon came to 3.1e+06 M⁻¹ s⁻¹ in [7] and 2.1e+06 M⁻¹ s⁻¹ in [4]. For the same molecule, the off-rate (koff) turned out to be 0.66 s⁻¹ in test [8] and 1.3 s⁻¹ in [6].

B8: BID I101A peptide, TAMRA-labelled (peptide, UniProt P70444 76-110, looked up)
chain: {TAMRA}-SESQEEIIHNIARHLAQIGDEMDHNAQPTLVRQLA
notes: as for B1
B8: the Kd in test [1] is 0.022 nM; in test [2], 0.3 nM. Besides, the kon stood at 8.6e+06 M⁻¹ s⁻¹ in test [3] and 8.2e+06 M⁻¹ s⁻¹ in test [4]. Moreover, the koff came to 0.0002 s⁻¹ in test [5] and 0.0025 s⁻¹ in test [6].

B9: PUMA (A139G A150G) peptide (on the M144A wild type), TAMRA-labelled (peptide, UniProt Q99ML1 127-161, looked up)
chain: {TAMRA}-RVEEEEWAREIGGQLRRAADDLNGQYERRRQEEQH
notes: PUMA, mouse, residues 127-161, UniProt Q99ML1; Double mutant; also called A150G (A139G); source: synthetic peptide (Biomatik)
As for B9, the Kd in test [11] is 1.7 ± 0.2 nM; in [1], 1.4 nM. Moreover, in test [7], the kon is 2.78e+06 M⁻¹ s⁻¹. In [8], this molecule returned a koff of 0.0039 s⁻¹.

B10: PUMA L148A peptide (on the M144A wild type), TAMRA-labelled (peptide)
chain: {TAMRA}-RVEEEEWAREIGAQLRRAADDANAQYERRRQEEQH
Turning to B10, the values for the Kd in [1] and in test [9] were 7.1 nM and 5.65 nM, respectively. This molecule returned a kon in [7] of 4.9e+06 M⁻¹ s⁻¹. Also, the off-rate constant (koff) in test [8] is 0.0348 s⁻¹.

B11: PUMA L141A peptide (on the M144A wild type), TAMRA-labelled (peptide)
chain: {TAMRA}-RVEEEEWAREIGAQARRAADDLNAQYERRRQEEQH
B11: the Kd in test [1] was 735 nM; in test [9], 710 nM. In test [7], this molecule returned a kon of 1.67e+06 M⁻¹ s⁻¹. Also, the koff in test [8] was 1.23 s⁻¹.

B12: BID peptide (mouse, residues 76-110), N-terminal TAMRA (peptide, UniProt P70444 76-110, looked up)
peptide: {TAMRA}-SESQEEIIHNIARHLAQIGDEMDHNIQPTLVRQLA
notes: BID, mouse, residues 76-110, UniProt P70444; source: synthetic peptide (synthesized by Biomatik)
Consider B12, for which, in test [12], the binding result is “binds”.
